Results on nine substances are retold here after publication PMC3098868.

Experiment [1] addresses human insulin receptor, isoform A (holoreceptor) (human) (UniProt P06213). Description: radioligand binding; scintillation proximity assay (SPA): competition of [125I]TyrA14-labelled insulin binding to solubilized holoreceptor, with IR-specific antibody 83-7; analogues taken directly from yeast supernatant after conversion; four-parameter logistic model; affinity relative to human insulin within the same plate [IC50(insulin)/IC50(analogue) x 100%]; near physiological pH. On the technique in general: SPA uses beads or plates that emit light when radiolabelled molecules are held near them.

The target in experiment [2] is human insulin receptor, isoform B (holoreceptor) (human) (UniProt P06213). The description is as above.
The target is the same in experiment [3]. Description: radioligand binding; scintillation proximity assay (SPA): competition of [125I]TyrA14-labelled insulin binding to solubilized holoreceptor, with IR-specific antibody 83-7; purified ligand (human insulin standard, tracer, purified unglycosylated [A8H, B25N]); near physiological pH.

Take “[A8H, B25A, B27E] desB30 insulin analogue (ligand)”: the relative affinity (IC50 insulin/IC50 analogue x 100%) (% of human insulin) was 10 in experiment [1] and 24 in experiment [2].
For “[A8H, B25H, B27D] desB30 insulin analogue (ligand)”, the values for the relative affinity (IC50 insulin/IC50 analogue x 100%) (% of human insulin) in experiment [1] and in experiment [2] were 43 and 82, respectively.
The corresponding values for “[A8H, B25H, B27E] desB30 insulin analogue (ligand)” are 67 and 140.
On the same counts, the results for “[A8H, B25N, B27D] desB30 insulin analogue (ligand)” are 10 and 38.
The corresponding values for “[A8H, B25N, B27E] desB30 insulin analogue (ligand)” are 15 and 57.
In turn, “[A8H, B25N] desB30 insulin analogue (ligand)” registered a fold difference in relative binding potency, IR-B over IR-A in experiment [3] of 2 fold. Besides, the relative affinity (IC50 insulin/IC50 analogue x 100%) (% of human insulin) in experiment [1] amounted to 22; in experiment [2], 44.
Consider “[A8H, B25Y, B27E] desB30 insulin analogue (ligand)”, for which the relative affinity (IC50 insulin/IC50 analogue x 100%) (% of human insulin) turned out to be 714 in experiment [1] and 459 in experiment [2].
On the same counts, the results for [A8H] desB30 insulin analogue (ligand) are 308 and 308.
The corresponding values for [B25N] desB30 insulin analogue (ligand) are 4 and 8.
